Results reported in IntAct's records for PubMed 15475008.

B1: Calcium and integrin-binding protein 1 (Homo sapiens), Q99828-1 (parent)
chain: MGGSGSRLSKELLAEYQDLTFLTKQEILLAHRRFCELLPQEQRSVESSLRAQVPFEQILSLPELKANPFKERICRVFSTSPAKDSLSFEDFLDLLSVFSDTATPDIKSHYAFRIFDFDDDGTLNREDLSRLVNCLTGEGEDTRLSASEMKQLIDNILEESDIDRDGTINLSEFQHVISRSPDFASSFKIVL

Legend:
Conditions in all cases: with psn2_human PSEN2, P49810
[1] = variants of: B1
[2] = variants of: B1; remark: listed apart in the source
[3] = variants of: B1; remark: listed apart in the source

effect of a mutation on the interaction [1]	effect of a mutation on the interaction [2]	effect of a mutation on the interaction [3]	Variant
disrupting interaction strength	decreasing interaction		MGGSGSRLSKELLAEYQDLTFLTKQEILLAHRRFCELLPQEQRSVESSLRAQVPFEQILSLPELKANPFKERICRVFSTSPAKDSLSFEDFLDLLSVFSDTATPDIKSHYAFRIFDFDDDGTLNRENLSRLVNCLTGEGEDTRLSASEMKQLIDNILEESDIDRDGTINLSQFQHVISRSPDFASSFKIVL
disrupting interaction strength	decreasing interaction		MGGSGSRLSKELLAEYQDLTFLTKQEILLAHRRFCELLPQEQRSVESSLRAQVPFEQILSLPELKANPFKERICRVFSTSPAKDSLSFEDFLDLLSVFSDTATPDIKSHYAFRIFDFDDDGTLNRENLSRLVNCLTGEGEDTRLSASEMKQLIDNILEESDIDRDGTINLSEFQHVISRSPDFASSFKIVL
disrupting interaction strength	decreasing interaction	decreasing interaction strength	MGGSGSRLSKELLAEYQDLTFLTKQEILLAHRRFCELLPQEQRSVESSLRAQVPFEQILSLPELKANPFKERICRVFSTSPAKDSLSFEDFLDLLSVFSDTATPDIKSHYAFRIFDFDDDGTLNREDLSRLVNCLTGEGEDTRLSASEMKQLIDNILEESDIDRDGTINLSQFQHVISRSPDFASSFKIVL
